T1: human cdc25 A (GST fusion protein) (Homo sapiens, UniProt P30304)
T1 construct: A plasmid containing the entire open reading frame of human cdc25 A was digested with Ncol (at amino acid 1); made in house; host or cells: E. coli (bacteria)
T1 sequence (P30304 1-524): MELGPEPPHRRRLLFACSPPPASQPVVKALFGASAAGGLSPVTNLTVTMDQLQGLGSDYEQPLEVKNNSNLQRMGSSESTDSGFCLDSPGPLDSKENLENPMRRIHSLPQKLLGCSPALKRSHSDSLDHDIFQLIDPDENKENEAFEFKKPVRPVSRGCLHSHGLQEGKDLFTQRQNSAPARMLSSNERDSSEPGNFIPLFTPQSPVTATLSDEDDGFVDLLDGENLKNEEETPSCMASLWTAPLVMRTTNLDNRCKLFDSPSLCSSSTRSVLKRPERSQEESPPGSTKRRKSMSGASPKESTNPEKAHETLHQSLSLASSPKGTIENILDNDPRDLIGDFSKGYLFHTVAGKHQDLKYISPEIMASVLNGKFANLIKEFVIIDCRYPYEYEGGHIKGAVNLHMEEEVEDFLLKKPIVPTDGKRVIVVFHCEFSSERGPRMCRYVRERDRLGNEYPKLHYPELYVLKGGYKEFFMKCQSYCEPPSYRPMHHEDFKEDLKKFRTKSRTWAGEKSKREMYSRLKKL

T2: human cdc25 B (GST fusion protein) (Homo sapiens, UniProt P30305)
T2 construct: An 2.4 kb Smal fragment from the p4×1.2 plasmid encoding amino acids 32–566 was subcloned; made in house; host or cells: E. coli (bacteria)
T2 sequence (P30305 32-566 isoform P30305-2): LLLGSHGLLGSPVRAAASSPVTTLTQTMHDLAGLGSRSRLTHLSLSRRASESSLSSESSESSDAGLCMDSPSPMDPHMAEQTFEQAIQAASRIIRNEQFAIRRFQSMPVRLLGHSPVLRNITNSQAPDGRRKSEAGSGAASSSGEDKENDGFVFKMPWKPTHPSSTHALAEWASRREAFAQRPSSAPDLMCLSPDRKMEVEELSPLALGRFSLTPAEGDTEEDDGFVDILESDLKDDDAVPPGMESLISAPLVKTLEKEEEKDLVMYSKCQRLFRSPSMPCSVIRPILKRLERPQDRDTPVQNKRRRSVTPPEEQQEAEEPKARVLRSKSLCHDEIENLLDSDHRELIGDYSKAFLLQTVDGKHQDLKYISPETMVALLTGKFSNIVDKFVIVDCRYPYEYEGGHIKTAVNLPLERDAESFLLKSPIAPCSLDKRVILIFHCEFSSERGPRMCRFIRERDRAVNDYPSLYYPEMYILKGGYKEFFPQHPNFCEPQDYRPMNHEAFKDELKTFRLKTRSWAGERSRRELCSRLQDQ

B1: D: murine cyclin D1 (CYL1) expressed as fusion protein with GST (protein)
chain: MEHQLLCCEVETIRRAYPDTNLLNDRVLRAMLKTEETCAPSVSYFKCVQKEIVPSMRKIVATWMLEVCEEQKCEEEVFPLAMNYLDRFLSLEPLKKSRLQLLGATCMFVASKMKETIPLTAEKLCIYTDNSIRPEELLQMELLLVNKLKWNLAAMTPHDFIEHFLSKMPEADENKQTIRKHAQTFVALCATDVKFISNPPSMVAAGSVVAAMQGLNLGSPNNFLSCYRTTHFLSRVIKCDPDCLRACQEQIEALLESSLRQAQQNVDPKATEEEGEVEEEAGLACTPTDVRDVDI
modifications: left off: a dimerising Fc or GST
B2: p13: p13 protein encoded by the suc1 gene, an essential subunit of the cdc2 protein kinase (protein)
chain: MSKSGVPRLLTASERERLEPFIDQIHYSPRYADDEYEYRHVMLPKAMLKAIPTDYFNPETGTLRILQEEEWRGLGITQSLGWEMYEVHVPEPHILLFKREKDYQMKFSQQRGG

Key:
[1] = biological target: T1, human cdc25 A (GST fusion protein); assay: cdc25 A tyrosine phosphatase assay with 32P-RCML substrate; assay type: biochemical
Description: A plasmid containing the entire open reading frame of human cdc25 A was digested with Ncol (at amino acid 1), blunt ended with T4 DNA polymerase, heat inactivated, extracted with phenolchlorophorm, ethanol precipitated and digested with EcoRI. The resultant 2.0 kb fragment was gel-purified and ligated into pGEX-2T Smal/EcoRI digested vector. Resultant plasmid upon transformation into bacteria gave rise to a 90 kd IPTG-inducible protein. […] Absorbance at 410 nm was determined using a molar absorptivity of 1.78×10^4M^−1 cm^−1 to calculate the concentration of the p-nitrophenolate ion generated in the assay. […]
Reduced carboxamidomethylated and maleylated lysozyme (RCML) was obtained from N. Tonks in a ^32P-tyrosine phosphorylated form. […] Reactions ([…]) were performed at 30° C. for 10 or 20 min, and after addition of the fatty acid free bovine serum albumin (BSA, Sigma) to 2 mg/ml, proteins were precipitated with […] of 20% trichloroacetic acid, vortexed, incubated at −70° C. for 5 min, thawed, spun in an Eppendorf centrifuge for 5–10 min at the maximal speed and […] supernatants were counted in 2 ml Aquasol (NEN) for 10 min. […]

[2] = biological target: T2, human cdc25 B (GST fusion protein); assay: cdc25 B tyrosine phosphatase assay, pH 8.8; assay type: biochemical; details: p13 at 25 mM, in the presence or absence of cyclin B

Row | Molecule | effect on the endogenous phosphatase activity of cdc25 A ([1]; RCML substrate, 10 pmoles of cyclin and cdc25 protein) | inhibition of the endogenous phosphatase activity of cdc25 A ([1]; p13 at 25 mM, without cyclin B1) | effect on the activity of cdc25 B [2]
1 | B1 | neither stimulatory nor inhibitory effect |  | 
2 | B2 |  | 2–3 fold | no effect

— patent US7005258B1, “Cdc25 genes, encoded products and uses thereof” (The National Institutes of Health, priority 1991, dated 2006)
